According to paper PMC1240114:

Biological target: tFKBP*3R (UniProt P62942 2-108, F37V;M50R;E55R;T86R)
Assay: filter binding

Chain of tFKBP*3R (P62942 2-108 F37V/M50R/E55R/T86R): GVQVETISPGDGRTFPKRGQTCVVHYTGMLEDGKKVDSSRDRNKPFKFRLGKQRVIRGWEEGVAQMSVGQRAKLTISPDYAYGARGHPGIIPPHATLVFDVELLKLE

B1: s23 U74C (structured_RNA)
RNA: GGGCAUUGGAUCGCAUUGUCAUUUCAUUGUGGCGGUGCAGUCAAAUGUGAUGCUUCGUUCAGUGACGGGAGGGCUGUGAGUGGUCUGAACGUAAGC
Kd: 10.8 ± 3.8 nM
